Biological target: guanylyl cyclase C (GC-C), as expressed on T84 human colon carcinoma cells (human) (UniProt P25092)
Assay: cell-based or functional assay

guanylyl cyclase C (GC-C), as expressed on T84 human colon carcinoma cells (human), sequence (P25092 24-1073): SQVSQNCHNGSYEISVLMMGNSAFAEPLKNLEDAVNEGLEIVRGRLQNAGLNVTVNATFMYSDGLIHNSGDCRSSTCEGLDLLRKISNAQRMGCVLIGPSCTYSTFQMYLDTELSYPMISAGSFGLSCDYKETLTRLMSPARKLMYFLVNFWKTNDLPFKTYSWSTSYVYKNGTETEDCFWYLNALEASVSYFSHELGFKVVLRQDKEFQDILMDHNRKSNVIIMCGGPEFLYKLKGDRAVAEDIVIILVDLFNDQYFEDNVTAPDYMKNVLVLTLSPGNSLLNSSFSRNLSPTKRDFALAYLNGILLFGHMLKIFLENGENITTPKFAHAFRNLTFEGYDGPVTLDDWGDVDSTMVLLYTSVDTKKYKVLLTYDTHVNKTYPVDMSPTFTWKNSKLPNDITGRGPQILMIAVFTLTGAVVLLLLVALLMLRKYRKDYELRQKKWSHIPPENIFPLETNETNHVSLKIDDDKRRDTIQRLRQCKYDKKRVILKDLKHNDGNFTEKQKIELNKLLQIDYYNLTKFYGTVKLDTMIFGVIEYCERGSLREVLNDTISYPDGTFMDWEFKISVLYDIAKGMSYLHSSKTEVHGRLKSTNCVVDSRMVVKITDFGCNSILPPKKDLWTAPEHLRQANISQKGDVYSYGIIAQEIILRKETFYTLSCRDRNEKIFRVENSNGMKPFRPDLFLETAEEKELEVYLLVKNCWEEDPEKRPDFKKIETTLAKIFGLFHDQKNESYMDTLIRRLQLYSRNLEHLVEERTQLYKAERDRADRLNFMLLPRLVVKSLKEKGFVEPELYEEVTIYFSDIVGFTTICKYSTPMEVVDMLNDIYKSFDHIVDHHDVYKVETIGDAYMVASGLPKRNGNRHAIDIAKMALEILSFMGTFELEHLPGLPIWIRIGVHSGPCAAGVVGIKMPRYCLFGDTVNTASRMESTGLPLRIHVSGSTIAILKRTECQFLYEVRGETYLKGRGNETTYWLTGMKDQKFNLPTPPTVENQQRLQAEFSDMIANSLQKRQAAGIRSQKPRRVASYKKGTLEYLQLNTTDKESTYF

For “E. coli heat-stable enterotoxin (ST) (peptide)”, which EC50 for ST (cytostatic effect, in vitro TJU experiments) is on record?
The EC50 for ST (cytostatic effect, in vitro TJU experiments) was 10 nM.

Reference: patent publication US20040258687A1
